Laboratory results: paper doi:10.1101/162842

Biological target: mCardinal
Test: SEC + AUC

stoichiometry N: 2
Substance: mCardinal
